How the values were obtained:
[1] = target: T1, N43 (gp41 NHR peptide, Val539~Leu581) (HIV-1 (numbering of HIV-1 HXB2 gp160), UniProt P04578 539-581); experiment: cell-based or functional assay
[2] = target: T1, N43 (gp41 NHR peptide, Val539~Leu581); experiment: cell-based or functional assay; remark: listed apart in the source

T1 sequence (P04578 539-581): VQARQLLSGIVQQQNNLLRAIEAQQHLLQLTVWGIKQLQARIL

Question: With WMEWDREINNYTSLIHSLIEESQNQQIDL [CP-IDL] as the binder, how does the “IC50 of inhibition of infection, T20-resistant strain N42T, N43K” value [1] read?
Answer: Its value is 382 nM.

Question: And the “IC50 of inhibition of infection, T2635-resistant strain K154Q” value [1]?
Answer: Its value is 9.79 nM.

Question: What about the “IC50 of inhibition of infection, T2635-resistant strain N113E” value [1] of the same binder?
Answer: Its value is 7.99 nM.

Question: And the “IC50 of inhibition of infection, T2635-resistant strain N126K” value [1]?
Answer: The value was 46.4 nM.

Question: And the “IC50 of inhibition of infection, T2635-resistant strain Q66R, N126K” value [1]?
Answer: The value was 302 nM.

Question: What about the “IC50 of inhibition of infection, panel of T20-resistant strains: WT” value [1] of the same binder?
Answer: The value was 8.67 nM.

Question: And the “IC50 of inhibition of infection, panel of T2635-resistant strains: WT” value [1]?
Answer: Its value is 10.8 nM.

Question: And the “IC50 of inhibition of HIV-1 pseudovirus B1206.W6P.ENV.A1 (subtype A)” value [2]?
Answer: Its value is 74.5 nM.

Question: What about the “IC50 of inhibition of HIV-1 pseudovirus BG505.W6M.ENV.C2 (subtype A)” value [2] of the same binder?
Answer: Its value is 8.61 nM.

Question: And the “IC50 of inhibition of HIV-1 pseudovirus BJ412.W6M.ENV.S3 (subtype C)” value [2]?
Answer: Its value is 1.21 nM.

Question: What about the “IC50 of inhibition of HIV-1 pseudovirus MJ412.W0M.ENV.B1 (subtype C)” value [2] of the same binder?
Answer: The value was 2.24 nM.

Question: What about the “IC50 of inhibition of HIV-1 pseudovirus SF162.LS (subtype B, R5, Tier 1)” value [2] of the same binder?
Answer: Its value is 1.51 nM.

Question: And the “IC50 of inhibition of HIV-1 pseudovirus ZM109F.PB4 (subtype C, R5)” value [2]?
Answer: The value was 2.93 nM.

Question: And the “IC50 of inhibition of HIV-1 pseudovirus pCH119 env (subtype BC, R5, Tier 2)” value [2]?
Answer: Its value is 5.79 nM.
